From paper doi:10.1101/2020.07.09.174003 (bioRxiv, 2020)

How the values were obtained:
[1] = molecular target: Deinococcus radiodurans phytochrome (DrBphP) photosensory module, biliverdin-bound, with C-terminal AviTag and HisTag (Deinococcus radiodurans); assay: SEC
[2] = molecular target: Rhodopseudomonas palustris BphP1 (RpBphP1), mammalian two-hybrid fusion (Rhodopseudomonas palustris); assay: two-hybrid
[3] = molecular target: DrBphP photosensory module, biliverdin-bound, yeast two-hybrid bait (Deinococcus radiodurans (entry strain …, UniProt Q9RZA4, biliverdin-bound)); assay: two-hybrid
DrBphP photosensory module, biliverdin-bound, yeast two-hybrid bait (Deinococcus radiodurans, sequence (Q9RZA4 whole entry, looked up, tested part not stated): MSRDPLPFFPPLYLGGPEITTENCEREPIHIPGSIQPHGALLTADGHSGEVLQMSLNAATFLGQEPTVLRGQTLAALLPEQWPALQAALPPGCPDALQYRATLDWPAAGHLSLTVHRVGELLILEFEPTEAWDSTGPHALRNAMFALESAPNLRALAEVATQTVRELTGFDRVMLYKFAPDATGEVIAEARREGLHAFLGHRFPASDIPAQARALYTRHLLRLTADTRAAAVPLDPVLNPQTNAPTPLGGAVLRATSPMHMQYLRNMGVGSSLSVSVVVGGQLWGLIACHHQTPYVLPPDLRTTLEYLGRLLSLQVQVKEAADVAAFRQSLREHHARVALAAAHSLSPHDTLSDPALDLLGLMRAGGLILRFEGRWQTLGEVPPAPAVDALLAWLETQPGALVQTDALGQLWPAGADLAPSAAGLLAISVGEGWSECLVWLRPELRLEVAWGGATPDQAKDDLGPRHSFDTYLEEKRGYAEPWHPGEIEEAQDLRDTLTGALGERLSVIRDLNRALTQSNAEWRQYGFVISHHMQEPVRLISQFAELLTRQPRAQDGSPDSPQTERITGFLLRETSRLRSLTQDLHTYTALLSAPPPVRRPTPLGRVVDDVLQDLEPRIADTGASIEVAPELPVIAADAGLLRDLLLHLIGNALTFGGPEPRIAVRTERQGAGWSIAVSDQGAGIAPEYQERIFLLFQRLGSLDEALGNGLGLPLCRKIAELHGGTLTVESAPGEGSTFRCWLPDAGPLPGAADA

Molecule: Deinococcus radiodurans phytochrome (DrBphP) photosensory module, biliverdin-bound, with C-terminal AviTag and HisTag (domain or fragment)
- stoichiometry N [1]: 2

Molecule: PpsR2, mammalian two-hybrid fusion (natural protein)
- fold increase of luciferase expression, 775-nm light over dark [2]: 2.95 fold

Molecule: Q-PAS1, a truncated form of PpsR2, mammalian two-hybrid fusion (domain or fragment)
- fold increase of luciferase expression, 775-nm light over dark [2]: 2.02 fold

B1: LDB-7 nanobody, yeast two-hybrid prey (VHH)
VHH: EVQLQASGGGFVQPGGSLRLSCAASGSTSDFESMGWFRQAPGKEREFVSAISSWFTNPPYYADSVKGRFTISRDNSKNTVYLQMNSLRAEDTATYYCAHRSIWYHPTYWGQGTQVTVSS
- binding result [3]: binds

B2: LDB-4 nanobody, yeast two-hybrid prey (VHH)
VHH: EVQLQASGGGFVQPGGSLRLSCAASGDTSYLYSMGWFRQAPGKEREFVSAISWWWNLTQYYADSVKGRFTISRDNSKNTVYLQMNSLRAEDTATYYCAWSIYFPPGNDYNGYHYWGQGTQVTVSS
- binding result [3]: binds

B3: LDB-6 nanobody, yeast two-hybrid prey (VHH)
VHH: EVQLQASGGGFVQPGGSLRLSCAASGFFSNWSDMGWFRQAPGKEREFVSAISFWADGTEYYADSVKGRFTISRDNSKNTVYLQMNSLRAEDTATYYCAWYGPVNGFYMFDYWGQGTQVTVSS
- binding result [3]: binds
